Patent publication US20090048161A1 (VALORISATION HSJ SOCIETE EN COMMANDITE, published 2009)
Where no end group is shown, it is not given here. [ ]: non-standard residue; d: D form. dOrn = NCCC[C@@H](N)C(=O)O

Columns and labels:
Test in all cases: cell-based or functional assay
[1] = target: T1, IL-1R of pig (piglet pial vessels; porcine endothelial cells) (porcine (piglet), UniProt A0A5G2QSI4 18-572)
T1 sequence: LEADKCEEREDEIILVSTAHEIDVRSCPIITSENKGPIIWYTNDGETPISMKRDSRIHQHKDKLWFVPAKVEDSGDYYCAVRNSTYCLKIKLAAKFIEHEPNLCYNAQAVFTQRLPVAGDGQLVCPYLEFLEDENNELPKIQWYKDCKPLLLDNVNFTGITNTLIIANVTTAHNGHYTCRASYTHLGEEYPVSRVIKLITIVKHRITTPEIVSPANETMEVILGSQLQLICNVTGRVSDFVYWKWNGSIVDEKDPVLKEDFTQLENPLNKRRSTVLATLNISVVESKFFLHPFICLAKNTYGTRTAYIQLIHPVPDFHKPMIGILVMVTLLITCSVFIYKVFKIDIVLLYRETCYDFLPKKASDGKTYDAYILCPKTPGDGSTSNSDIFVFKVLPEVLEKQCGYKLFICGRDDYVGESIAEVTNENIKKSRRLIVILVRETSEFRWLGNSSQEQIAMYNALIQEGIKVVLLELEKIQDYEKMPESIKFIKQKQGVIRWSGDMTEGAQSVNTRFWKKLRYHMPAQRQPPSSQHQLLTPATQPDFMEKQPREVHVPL

[2] = target: T1, IL-1R of pig (piglet pial vessels; …); remark: listed apart in the source
[3] = target: T2, human Interleukin-1 receptor (IL-1R-alpha) (human, UniProt P14778 18-569)
T2 sequence: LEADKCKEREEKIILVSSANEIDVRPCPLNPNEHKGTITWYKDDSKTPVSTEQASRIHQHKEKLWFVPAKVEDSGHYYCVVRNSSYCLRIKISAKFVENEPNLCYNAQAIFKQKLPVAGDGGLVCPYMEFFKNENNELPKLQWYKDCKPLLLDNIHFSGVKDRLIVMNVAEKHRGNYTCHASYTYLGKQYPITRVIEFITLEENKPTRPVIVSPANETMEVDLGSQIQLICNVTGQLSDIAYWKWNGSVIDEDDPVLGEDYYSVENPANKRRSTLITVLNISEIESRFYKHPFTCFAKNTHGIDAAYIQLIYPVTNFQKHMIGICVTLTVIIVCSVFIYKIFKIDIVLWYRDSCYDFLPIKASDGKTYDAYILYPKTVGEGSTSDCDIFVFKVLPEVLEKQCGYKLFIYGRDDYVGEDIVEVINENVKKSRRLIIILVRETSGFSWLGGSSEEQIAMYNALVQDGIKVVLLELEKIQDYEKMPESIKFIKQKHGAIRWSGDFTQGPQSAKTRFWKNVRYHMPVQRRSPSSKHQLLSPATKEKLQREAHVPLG

[4] = target: T3, human Insulin-like growth factor 1 receptor (IGF-1R) (human, UniProt P08069 31-1367)
VEGFR-2 (Flk-1) = VEGFR-2 (Flk-1) (human, UniProt P35968 20-1356)
[5] = target: T2, human Interleukin-1 receptor …; remark: listed apart in the source
[6] = target: T3, human Insulin-like growth factor 1 …; remark: listed apart in the source
[7] = target: IGF-1 receptor of rat aorta (rat, UniProt P24062 31-1370)
[8] = target: T2, human Interleukin-1 receptor …; remark: listed apart in the source
[9] = target: T3, human Insulin-like growth factor 1 …; remark: listed apart in the source

Chain of IGF-1 receptor of rat aorta (P24062 31-1370): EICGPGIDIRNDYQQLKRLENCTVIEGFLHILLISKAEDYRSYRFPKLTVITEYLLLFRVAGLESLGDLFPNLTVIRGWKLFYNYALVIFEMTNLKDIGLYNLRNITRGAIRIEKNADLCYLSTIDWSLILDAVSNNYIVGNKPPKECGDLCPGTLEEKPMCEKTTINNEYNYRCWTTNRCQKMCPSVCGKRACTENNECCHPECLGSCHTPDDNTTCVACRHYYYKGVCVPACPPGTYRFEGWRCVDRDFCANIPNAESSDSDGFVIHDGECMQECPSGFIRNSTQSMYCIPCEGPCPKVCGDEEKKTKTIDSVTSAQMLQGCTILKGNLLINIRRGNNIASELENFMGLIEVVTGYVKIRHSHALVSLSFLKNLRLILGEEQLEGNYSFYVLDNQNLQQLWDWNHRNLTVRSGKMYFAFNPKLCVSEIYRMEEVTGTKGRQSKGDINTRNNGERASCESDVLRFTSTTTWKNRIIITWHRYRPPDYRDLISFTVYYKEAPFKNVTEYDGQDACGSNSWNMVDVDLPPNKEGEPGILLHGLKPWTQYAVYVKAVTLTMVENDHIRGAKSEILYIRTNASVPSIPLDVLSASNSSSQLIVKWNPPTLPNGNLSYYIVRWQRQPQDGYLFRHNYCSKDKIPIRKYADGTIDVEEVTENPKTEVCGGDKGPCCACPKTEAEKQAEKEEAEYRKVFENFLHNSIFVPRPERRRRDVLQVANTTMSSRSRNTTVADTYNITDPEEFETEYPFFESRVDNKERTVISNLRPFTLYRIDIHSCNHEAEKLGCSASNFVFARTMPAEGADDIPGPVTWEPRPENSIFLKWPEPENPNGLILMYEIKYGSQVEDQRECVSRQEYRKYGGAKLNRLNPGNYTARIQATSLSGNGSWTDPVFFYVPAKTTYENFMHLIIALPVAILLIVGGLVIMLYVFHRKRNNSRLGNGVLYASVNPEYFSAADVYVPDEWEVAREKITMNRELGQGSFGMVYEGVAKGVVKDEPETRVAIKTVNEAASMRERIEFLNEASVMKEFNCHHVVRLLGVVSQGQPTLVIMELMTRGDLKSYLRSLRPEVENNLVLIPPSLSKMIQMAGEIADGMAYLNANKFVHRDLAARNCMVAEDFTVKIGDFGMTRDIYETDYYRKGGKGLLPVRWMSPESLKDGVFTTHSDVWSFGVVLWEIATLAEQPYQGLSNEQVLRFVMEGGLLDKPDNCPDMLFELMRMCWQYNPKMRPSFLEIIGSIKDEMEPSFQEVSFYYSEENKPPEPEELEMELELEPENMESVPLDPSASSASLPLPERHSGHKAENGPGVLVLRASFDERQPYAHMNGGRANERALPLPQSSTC
T3 sequence (P08069 31-1367 limits assumed): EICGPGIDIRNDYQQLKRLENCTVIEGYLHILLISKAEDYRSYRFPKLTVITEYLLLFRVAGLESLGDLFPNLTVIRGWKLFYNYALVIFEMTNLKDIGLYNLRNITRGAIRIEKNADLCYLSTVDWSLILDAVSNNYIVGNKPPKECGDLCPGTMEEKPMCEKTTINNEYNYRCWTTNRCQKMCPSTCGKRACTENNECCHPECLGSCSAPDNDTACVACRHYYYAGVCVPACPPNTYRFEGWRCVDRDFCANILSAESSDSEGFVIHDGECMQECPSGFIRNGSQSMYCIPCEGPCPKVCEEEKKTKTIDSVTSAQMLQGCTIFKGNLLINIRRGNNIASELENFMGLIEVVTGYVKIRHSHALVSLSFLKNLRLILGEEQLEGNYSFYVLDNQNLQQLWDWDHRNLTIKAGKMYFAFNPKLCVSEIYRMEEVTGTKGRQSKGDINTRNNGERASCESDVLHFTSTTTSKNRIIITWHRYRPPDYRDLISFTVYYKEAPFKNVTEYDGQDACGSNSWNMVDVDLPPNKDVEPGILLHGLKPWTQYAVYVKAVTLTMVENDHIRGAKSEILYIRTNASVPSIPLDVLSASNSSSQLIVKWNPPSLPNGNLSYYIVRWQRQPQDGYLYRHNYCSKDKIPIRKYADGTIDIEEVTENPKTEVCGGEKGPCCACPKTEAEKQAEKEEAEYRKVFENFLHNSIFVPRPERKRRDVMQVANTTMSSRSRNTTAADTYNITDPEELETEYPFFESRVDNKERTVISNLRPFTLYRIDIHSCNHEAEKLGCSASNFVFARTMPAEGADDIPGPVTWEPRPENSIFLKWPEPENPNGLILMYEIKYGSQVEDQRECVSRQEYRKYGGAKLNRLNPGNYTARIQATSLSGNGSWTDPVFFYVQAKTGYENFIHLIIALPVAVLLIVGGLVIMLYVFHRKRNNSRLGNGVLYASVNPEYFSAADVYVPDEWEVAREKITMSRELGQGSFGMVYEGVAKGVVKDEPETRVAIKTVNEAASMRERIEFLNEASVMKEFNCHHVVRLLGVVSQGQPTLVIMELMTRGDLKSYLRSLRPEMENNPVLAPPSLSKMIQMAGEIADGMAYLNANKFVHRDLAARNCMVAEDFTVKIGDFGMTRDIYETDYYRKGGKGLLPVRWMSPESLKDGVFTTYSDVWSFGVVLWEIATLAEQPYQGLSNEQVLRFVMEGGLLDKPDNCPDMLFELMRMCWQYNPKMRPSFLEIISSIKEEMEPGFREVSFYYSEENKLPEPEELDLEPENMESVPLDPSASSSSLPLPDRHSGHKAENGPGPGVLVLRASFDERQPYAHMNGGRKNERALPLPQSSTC
Chain of VEGFR-2 (Flk-1) (P35968 20-1356 limits assumed): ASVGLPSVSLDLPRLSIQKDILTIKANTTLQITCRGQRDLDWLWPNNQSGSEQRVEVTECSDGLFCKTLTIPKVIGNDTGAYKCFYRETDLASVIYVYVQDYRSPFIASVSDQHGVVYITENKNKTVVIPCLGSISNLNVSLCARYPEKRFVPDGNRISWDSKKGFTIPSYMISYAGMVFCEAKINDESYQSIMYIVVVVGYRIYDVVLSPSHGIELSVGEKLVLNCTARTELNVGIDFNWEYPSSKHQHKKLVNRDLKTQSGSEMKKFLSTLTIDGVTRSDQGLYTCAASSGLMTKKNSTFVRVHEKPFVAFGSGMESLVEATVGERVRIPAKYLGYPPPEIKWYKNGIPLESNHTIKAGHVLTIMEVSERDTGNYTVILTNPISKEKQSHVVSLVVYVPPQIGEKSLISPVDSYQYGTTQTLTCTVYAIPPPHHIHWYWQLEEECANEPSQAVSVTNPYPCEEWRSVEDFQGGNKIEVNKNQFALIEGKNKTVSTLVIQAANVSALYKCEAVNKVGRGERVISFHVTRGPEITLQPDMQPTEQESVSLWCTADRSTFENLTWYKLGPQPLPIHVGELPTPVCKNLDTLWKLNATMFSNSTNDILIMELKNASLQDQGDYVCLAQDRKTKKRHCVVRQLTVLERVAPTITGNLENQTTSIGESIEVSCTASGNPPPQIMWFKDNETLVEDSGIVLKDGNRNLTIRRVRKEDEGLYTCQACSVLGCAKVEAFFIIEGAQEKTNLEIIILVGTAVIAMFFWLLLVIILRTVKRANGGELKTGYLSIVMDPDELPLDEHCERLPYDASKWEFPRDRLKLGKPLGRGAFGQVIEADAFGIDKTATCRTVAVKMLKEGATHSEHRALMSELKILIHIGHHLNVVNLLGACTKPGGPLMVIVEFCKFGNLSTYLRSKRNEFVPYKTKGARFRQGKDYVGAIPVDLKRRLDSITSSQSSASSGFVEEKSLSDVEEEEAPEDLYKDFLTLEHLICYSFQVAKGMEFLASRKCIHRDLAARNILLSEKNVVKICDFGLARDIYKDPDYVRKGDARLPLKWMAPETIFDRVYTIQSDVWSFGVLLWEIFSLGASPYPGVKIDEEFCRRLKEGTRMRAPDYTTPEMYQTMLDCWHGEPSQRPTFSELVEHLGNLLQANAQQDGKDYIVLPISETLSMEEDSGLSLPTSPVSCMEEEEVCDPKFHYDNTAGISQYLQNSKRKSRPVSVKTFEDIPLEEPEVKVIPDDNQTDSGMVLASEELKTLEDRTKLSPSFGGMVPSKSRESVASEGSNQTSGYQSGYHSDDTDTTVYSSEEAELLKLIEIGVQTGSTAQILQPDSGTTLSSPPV

[dR][dY][dT][dP][dD][dL][dA] [API-101.117]
Emax (%), IL-1β-induced PGE2 synthesis in endothelial cells (porcine) [1]: 100%
IC50, IL-1β-induced PGE2 synthesis in endothelial cells (porcine) [1]: 0.01 nM

[dR][dY][dT][dV][dE][dL][dA] (also: 125I-labelled form used as tracer, site not given here) [API-101.10]
IC50, IL-1-induced PGE2 synthesis, endothelial cells [2]: 1.2 nM
IC50, prevention of IL-1β (75 ng/ml)-induced vasodilation, piglet pial vessels [2]: 10.8 nM
IC50, IL-1-induced PGE2 synthesis, WI-38 cells [3]: 0.2 nM
percent of IL-1β-induced WI-38 (human lung fibroblasts) proliferation abolished, 3H-thymidine [3]: 100%

TVLSNL [APG-206.9]
Emax, IGF-1-induced proliferation, NIH3T3-IGF-1R cells [4]: 90%
IC50, IGF-1-induced proliferation, NIH3T3-IGF-1R cells [4]: 20 nM

[dR][dY][dT][dV][dQ][dL][dA] [API-101.103]
IC50, PGE2 measurement, human WI-38 cells [3]: 50 nM

[dE][dA][dT][dV]G[dE][dR][dV][dR][dL] (not fully specified (residue 5)) [VEGFR peptide 2.2]
EC50, VEGF (2 ng/ml)-induced proliferation, 3H-thymidine, PAEC transfected with Flk-1 (VEGFR-2 (Flk-1)): 9000 nM

[dA][dQ][dE][dK][dT][dN][dL][dE][dI][dI][dI][dL][dV]G (not fully specified (residue 14)) [VEGFR peptide 2.1]
EC50, VEGF (2 ng/ml)-induced proliferation, 3H-thymidine, PAEC transfected with Flk-1 (VEGFR-2 (Flk-1)): 9000 nM

[dK][dY][dT][dP][dE][dL] [API-101.133]
Emax (%), IL-1β-induced TF-1 proliferation [5]: < 10%

ENFLHLLLA [APG-205]
EC50, IGF-1 (50 ng/ml)-induced proliferation, MCF-7 [6]: 0.1 nM
EC50, IGF-1 (50 ng/ml)-induced proliferation, MDA-MB-231 [6]: 100 nM
Emax, IGF-1 (50 ng/ml)-induced proliferation, MCF-7 [6]: 60%
Emax, IGF-1 (50 ng/ml)-induced proliferation, MDA-MB-231 [6]: 100%
EC50, inhibition of ex vivo IGF-1-induced vasorelaxation of rat aorta [7]: 70 nM
Emax, inhibition of ex vivo IGF-1-induced vasorelaxation of rat aorta [7]: 25%

[dR][dW][dT][dP][dE][dL] [API-101.128]
Emax (%), IL-1β-induced TF-1 proliferation [5]: 100%
IC50, IL-1β-induced TF-1 proliferation [5]: 3 nM

RTNASVPSI [APG-203]
EC50, IGF-1 (50 ng/ml)-induced proliferation, HepG2 [6]: < 0.1 nM
EC50, IGF-1 (50 ng/ml)-induced proliferation, MCF-7 [6]: 8 nM
EC50, IGF-1 (50 ng/ml)-induced proliferation, MDA-MB-231 [6]: 0.1 nM
Emax, IGF-1 (50 ng/ml)-induced proliferation, MCF-7 [6]: 45%
Emax, IGF-1 (50 ng/ml)-induced proliferation, MDA-MB-231 [6]: 100%
EC50, inhibition of ex vivo IGF-1-induced vasorelaxation of rat aorta [7]: 96 nM
Emax, inhibition of ex vivo IGF-1-induced vasorelaxation of rat aorta [7]: 50%

R[dY][dT][dP][dE][dL] [API-101.135]
Emax (%), IL-1β-induced TF-1 proliferation [5]: 63%

[dA][dP][dR][dY][dT][dV][dE][dL][dA] [API-101]
IC50, IL-1-induced PGE2 synthesis, endothelial cells [2]: 220 nM
IC50, prevention of IL-1β (75 ng/ml)-induced vasodilation, piglet pial vessels [2]: 182 nM
EC50, IL-1 induced proliferation, 3H-thymidine, A549 carcinoma cells [3]: 1000 nM
IC50, IL-1-induced PGE2 synthesis, WI-38 cells [3]: 790 nM
percent of IL-1β-induced WI-38 (human lung fibroblasts) proliferation abolished, 3H-thymidine [3]: 65%

KERTVISNLR [APG-206]
EC50, IGF-1 (50 ng/ml)-induced proliferation, HepG2 [6]: < 0.1 nM
EC50, IGF-1 (50 ng/ml)-induced proliferation, MCF-7 [6]: 2 nM
Emax, IGF-1 (50 ng/ml)-induced proliferation, MCF-7 [6]: 60%
EC50, inhibition of ex vivo IGF-1-induced vasorelaxation of rat aorta [7]: 689 nM
Emax, inhibition of ex vivo IGF-1-induced vasorelaxation of rat aorta [7]: 75%

[dR][dY][dT][dP][dE][dL] [API-101.113]
Emax (%), IL-1β-induced TF-1 proliferation [5]: 70%
Emax (%), IL-1β-induced PGE2 synthesis in endothelial cells (porcine) [1]: 80%
IC50, IL-1β-induced PGE2 synthesis in endothelial cells (porcine) [1]: 0.0074 nM
Emax (%), IL-1β-induced proliferation in TF-1 cells (human) [8]: 100%

RTVLSNL [APG-206.8]
Emax, proliferation, MCF-7 (breast cancer) cells [9]: 100%
IC50, proliferation, MCF-7 (breast cancer) cells [9]: 0.6 nM

[dY][dT][dV][dE][dL][dA] [API-101.11]
percent of IL-1β-induced WI-38 (human lung fibroblasts) proliferation abolished, 3H-thymidine [3]: 100%

MKLPVHKLY [API-103]
EC50, IL-1 induced proliferation, 3H-thymidine, A549 carcinoma cells [3]: 1000 nM

ERTVLSNL [APG-206.7]
Emax, IGF-1-induced proliferation, NIH3T3-IGF-1R cells [4]: 100%
IC50, IGF-1-induced proliferation, NIH3T3-IGF-1R cells [4]: 20 nM
Emax, proliferation, MCF-7 (breast cancer) cells [9]: 90%
IC50, proliferation, MCF-7 (breast cancer) cells [9]: 0.01 nM

KERTVLS [APG-206.5]
Emax, IGF-1-induced proliferation, NIH3T3-IGF-1R cells [4]: 75%
IC50, IGF-1-induced proliferation, NIH3T3-IGF-1R cells [4]: 0.5 nM
Emax, proliferation, MCF-7 (breast cancer) cells [9]: 100%
IC50, proliferation, MCF-7 (breast cancer) cells [9]: 9 nM

[dOrn][dY][dT][dP][dE][dL] [API-101.126]
Emax (%), IL-1β-induced TF-1 proliferation [5]: 0%

[dK][dY][dT][dP][dE][dL][dA] [API-101.114]
Emax (%), IL-1β-induced PGE2 synthesis in endothelial cells (porcine) [1]: 50%
IC50, IL-1β-induced PGE2 synthesis in endothelial cells (porcine) [1]: 0.002 nM

[dR][dF][dV][dP][dE][dL][dA] [API-101.127]
Emax (%), IL-1β-induced TF-1 proliferation [5]: < 30%

[dR][dW][dT][dP][dE][dL][dA] [API-101.116]
Emax (%), IL-1β-induced PGE2 synthesis in endothelial cells (porcine) [1]: 45%
IC50, IL-1β-induced PGE2 synthesis in endothelial cells (porcine) [1]: 0.013 nM
Emax (%), IL-1β-induced proliferation in TF-1 cells (human) [8]: 75%
IC50, IL-1β-induced proliferation in TF-1 cells (human) [8]: 0.5 nM

[dOrn][dY][dT][dP][dE][dL][dA] [API-101.115]
Emax (%), IL-1β-induced proliferation in TF-1 cells (human) [8]: 100%
IC50, IL-1β-induced proliferation in TF-1 cells (human) [8]: ~0.001 nM

[dR][dY][dT][dP][dE][dV] [API-101.129]
Emax (%), IL-1β-induced TF-1 proliferation [5]: 50%
IC50, IL-1β-induced TF-1 proliferation [5]: 400 nM

VGSPKNAVPPV [API-106]
EC50, IL-1 induced proliferation, 3H-thymidine, A549 carcinoma cells [3]: 10000 nM
